B1: Flag-myc-hnRNP R (wild type) [not stated] / HA-KPNA7 [human] (parent complex)
chain 1: MANQVNGNAVQLKEEEEPMDTSSVTHTEHYKTLIEAGLPQKVAERLDEIFQTGLVAYVDLDERAIDALREFNEEGALSVLQQFKESDLSHVQNKSAFLCGVMKTYRQREKQGSKVQESTKGPDEAKIKALLERTGYTLDVTTGQRKYGGPPPDSVYSGVQPGIGTEVFVGKIPRDLYEDELVPLFEKAGPIWDLRLMMDPLSGQNRGYAFITFCGKEAAQEAVKLCDSYEIRPGKHLGVCISVANNRLFVGSIPKNKTKENILEEFSKVTEGLVDVILYHQPDDKKKNRGFCFLEYEDHKSAAQARRRLMSGKVKVWGNVVTVEWADPVEEPDPEVMAKVKVLFVRNLATTVTEEILEKSFSEFGKLERVKKLKDYAFVHFEDRGAAVKAMDEMNGKEIEGEEIEIVLAKPPDKKRKERQAARQASRSTAYEDYYYHPPPRMPPPIRGRGRGGGRGGYGYPPDYYGYEDYYDDYYGYDYHDYRGGYEDPYYGYDDGYAVRGRGGGRGGRGAPPPPRGRGAPPPRGRAGYSQRGAPLGPPRGSRGGRGGPAQQQRGRGSRGSRGNRGGNVGGKRKADGYNQPDSKRRQTNNQQNWGSQPIAQQPLQQGGDYSGNYGYNNDNQEFYQDTYGQQWK
chain 2: not shown

Variants of: B1
Assay: co-immunoprecipitation (HA-IP, Flag western blot quantified); HEK293T(HA-KPNA7) cell extracts; input 2%, IP 30%; parent: 1

In order of falling ratio to parent:
1. chain 1 K414A, chain 1 K415A, chain 1 R416A  0.43
2. chain 1 K572A, chain 1 R573A, chain 1 K574A  0.21
3. chain 1 K584A, chain 1 R585A, chain 1 R586A  0.2

— PMC7076015 (2020)
